Data: publication PMC6888877, “Deconstructing and repurposing the light-regulated interplay between Arabidopsis phytochromes and interacting factors” (Communications Biology, 2019)

Assays:
Assay in all cases: SEC; 50 µM AtPhyB PCM + 10 µM AtPIF-EYFP (5:1), illuminated with red light (650 nm, 2 min; results say 640 nm), Pfr state; Superdex 200 Increase 10/300 GL; 67 mM sodium phosphate pH 8.0, 200 mM NaCl
Conditions in all cases: both partners purified
P3.A-EYFP = target: T1, P3.A-EYFP (Arabidopsis thaliana)
T1 chain: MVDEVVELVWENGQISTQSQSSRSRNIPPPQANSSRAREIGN

P3.AA-EYFP = target: T2, P3.AA-EYFP (Arabidopsis thaliana)
T2 chain: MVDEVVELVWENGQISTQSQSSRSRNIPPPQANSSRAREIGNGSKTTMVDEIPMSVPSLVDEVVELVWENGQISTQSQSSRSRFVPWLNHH

[1] = target: T3, AtPIF3 (1-100)-EYFP, P3.100 (Arabidopsis thaliana, UniProt O80536 1-100)
T3 construct: A. thaliana PIF3, residues 1-100; His6-SUMO only on the pET-19b construct that was purified; the pET-28c construct used in lysate has the same AtPIF part, linker and EYFP; also called P3.100-EYFP; source: E. coli BL21(DE3): in crude lysate (pET-28c), and purified (pET-19b; IMAC, SENP2 cleavage, second IMAC, optional anion exchange); not shown: His6-SUMO, N-terminal, cleaved
T3 sequence (looked up): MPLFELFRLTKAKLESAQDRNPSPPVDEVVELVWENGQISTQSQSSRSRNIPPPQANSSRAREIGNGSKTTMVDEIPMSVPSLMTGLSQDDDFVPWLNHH

P6.A-EYFP = target: T4, P6.A-EYFP (Arabidopsis thaliana)
T4 chain: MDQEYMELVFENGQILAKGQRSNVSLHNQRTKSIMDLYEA

P3.As-EYFP = target: T5, P3.As-EYFP (Arabidopsis thaliana)
T5 chain: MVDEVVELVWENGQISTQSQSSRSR

[2] = target: T6, AtPIF6 (1-100)-EYFP, P6.100 (Arabidopsis thaliana, UniProt Q8L5W7 1-100)
T6 construct: A. thaliana PIF6, residues 1-100; His6-SUMO only on the pET-19b construct that was purified; the pET-28c construct used in lysate has the same AtPIF part, linker and EYFP; also called P6.100-EYFP; source: E. coli BL21(DE3): in crude lysate (pET-28c), and purified (pET-19b; IMAC, SENP2 cleavage, second IMAC, optional anion exchange); not shown: His6-SUMO, N-terminal, cleaved
T6 sequence (looked up): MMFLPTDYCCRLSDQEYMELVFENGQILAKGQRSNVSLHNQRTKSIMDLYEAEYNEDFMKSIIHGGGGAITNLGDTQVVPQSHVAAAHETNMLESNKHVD

P6.AAfus-EYFP = target: T7, P6.AAfus-EYFP (Arabidopsis thaliana)
T7 chain: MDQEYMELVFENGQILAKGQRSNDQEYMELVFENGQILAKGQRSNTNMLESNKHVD

P3.AAfus-EYFP = target: T8, P3.AAfus-EYFP (Arabidopsis thaliana)
T8 chain: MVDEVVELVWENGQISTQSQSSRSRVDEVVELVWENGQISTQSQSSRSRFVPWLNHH

P6.As-EYFP = target: T9, P6.As-EYFP (Arabidopsis thaliana)
T9 chain: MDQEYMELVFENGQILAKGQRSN

[3] = target: T10, P6 (AtPIF6 1-100 without the N-terminal region preceding APB.A)-EYFP (Arabidopsis thaliana)
T10 chain: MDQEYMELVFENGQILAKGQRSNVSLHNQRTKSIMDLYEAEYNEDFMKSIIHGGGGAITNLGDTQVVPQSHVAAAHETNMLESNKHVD

P6.AA-EYFP = target: T11, P6.AA-EYFP (Arabidopsis thaliana)
T11 chain: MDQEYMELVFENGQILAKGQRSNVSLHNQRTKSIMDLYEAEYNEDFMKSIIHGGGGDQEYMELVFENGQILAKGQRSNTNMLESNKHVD

Measured: stoichiometry N

B1: Arabidopsis thaliana phytochrome B photosensory core module (AtPhyB PCM) (domain or fragment, UniProt P14713 1-651, looked up)
chain: MVSGVGGSGGGRGGGRGGEEEPSSSHTPNNRRGGEQAQSSGTKSLRPRSNTESMSKAIQQYTVDARLHAVFEQSGESGKSFDYSQSLKTTTYGSSVPEQQITAYLSRIQRGGYIQPFGCMIAVDESSFRIIGYSENAREMLGIMPQSVPTLEKPEILAMGTDVRSLFTSSSSILLERAFVAREITLLNPVWIHSKNTGKPFYAILHRIDVGVVIDLEPARTEDPALSIAGAVQSQKLAVRAISQLQALPGGDIKLLCDTVVESVRDLTGYDRVMVYKFHEDEHGEVVAESKRDDLEPYIGLHYPATDIPQASRFLFKQNRVRMIVDCNATPVLVVQDDRLTQSMCLVGSTLRAPHGCHSQYMANMGSIASLAMAVIINGNEDDGSNVASGRSSMRLWGLVVCHHTSSRCIPFPLRYACEFLMQAFGLQLNMELQLALQMSEKRVLRTQTLLCDMLLRDSPAGIVTQSPSIMDLVKCDGAAFLYHGKYYPLGVAPSEVQIKDVVEWLLANHADSTGLSTDSLGDAGYPGAAALGDAVCGMAVAYITKRDFLFWFRSHTAKEIKWGGAKHHPEDKDDGQRMHPRSSFQAFLEVVKSRSQPWETAEMDAIHSLQLILRDSFKESEAAMNSKVVDGVVQPCRDMAGEQGIDELGA
modifications: covalently incorporated bilin chromophore (PCB; co-expressed Synechocystis sp. heme oxygenase 1 and pcyA)
notes: A. thaliana phytochrome B, photosensory core module (PAS-GAF-PHY with N-terminal extension), residues 1-651; Pr state (far-red light or dark) and Pfr state (red light; Pfr/Pr about 0.56/0.44) are told apart by the assays; In the cell experiments other constructs were used (PCM-VP16; PCM 1-650 with CAAX); source: E. coli BL21(DE3), plasmid pDG282, purified (Ni-NTA IMAC, anion exchange)
1: all assays above
